The source of these data is PMC8396674.

In assay [1] the target is gC1q domain of human otolin-1 (hOtolC1q), wild type (human). The assay is described as follows: AUC; sedimentation velocity, 0.1, 0.25 and 0.5 mg/mL protein in 10 mM HEPES pH 7.0, 500 mM NaCl, 5% glycerol with 10 mM CaCl2, 20 °C, 50,000 rpm, c(s) analysis; also 0.25 mg/mL with 1 mM DTT.
Assay [2] has as its target gC1q domain of human otolin-1, natural variant Q426R (human). The assay is described as above.
Assay [3] deals with gC1q domain of human otolin-1, natural variant R339S (human). The assay is described as above.
Assay [4] deals with gC1q domain of human otolin-1, natural variant R342W (human). Nature of the assay: AUC; sedimentation velocity, 0.1, 0.25 and 0.5 mg/mL protein in 10 mM HEPES pH 7.0, 500 mM NaCl, 5% glycerol with 1 mM EDTA (no Ca2+), 20 °C, 50,000 rpm, c(s) analysis; also 0.25 mg/mL with 1 mM DTT.
Assay [5] has the same target. Nature of the assay: AUC; sedimentation velocity, 0.1, 0.25 and 0.5 mg/mL protein in 10 mM HEPES pH 7.0, 500 mM NaCl, 5% glycerol with 10 mM CaCl2, 20 °C, 50,000 rpm, c(s) analysis; also 0.25 mg/mL with 1 mM DTT.
In assay [6] the target is gC1q domain of human otolin-1, natural variant R402P (human). Nature of the assay: AUC; sedimentation velocity, 0.1, 0.25 and 0.5 mg/mL protein in 10 mM HEPES pH 7.0, 500 mM NaCl, 5% glycerol with 1 mM EDTA (no Ca2+), 20 °C, 50,000 rpm, c(s) analysis; also 0.25 mg/mL with 1 mM DTT.
Assay [7] shares this target. The assay is described as follows: AUC; sedimentation velocity, 0.1, 0.25 and 0.5 mg/mL protein in 10 mM HEPES pH 7.0, 500 mM NaCl, 5% glycerol with 10 mM CaCl2, 20 °C, 50,000 rpm, c(s) analysis; also 0.25 mg/mL with 1 mM DTT.

Values joined by “and” are separate entries in the source; they are usually repeats but may differ in a detail not shown here. Equal entries are not always repeated.

Consider “gC1q domain of human otolin-1 (hOtolC1q), wild type (domain or fragment)”, for which the stoichiometry N in assay [1] stood at 3.

Take “gC1q domain of human otolin-1, natural variant Q426R (domain or fragment)”: the stoichiometry N in assay [2] was found to be 3. For “gC1q domain of human otolin-1, natural variant R339S (domain or fragment)”, the stoichiometry N in assay [3] amounted to 3. On to “gC1q domain of human otolin-1, natural variant R342W (domain or fragment)”, for which the stoichiometry N in assay [4] is 2 and 4; in assay [5], 3.

As to “gC1q domain of human otolin-1, natural variant R402P (domain or fragment)”, the stoichiometry N in assay [6] and in assay [7] was 2 each time.

A word on the stoichiometry N: it is a count of units in the complex or per binding partner.
